Assay results published in patent JP2021155343A (dated 2021).

Target: T1, ヒトeIF5Aタンパクの(44−72番目)のアミノ酸残基から成るペプチド (human, UniProt P63241 44-72)
T1 construct: range 44-72; The peptide was coupled to KLH for immunisation; also called human eIF5A (44-72) peptide
Assay: ELISA screening of hybridoma monoclonal antibodies

T1 sequence (P63241 44-72 limits assumed): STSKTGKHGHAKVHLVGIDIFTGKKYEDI

B1: 抗ORAIP抗体(クローン YSP5−45−36) (antibody, V domains shown)
VH: EVKLVESGGGLVQPGGSLRLSCATSGFTFTDYYMSWARQPPGKALEWLGFIRNKANGYTTEYSASVKGRFTISRDNSLGILYLQMNTLRPEDSATYYCARNYYGTSFSWFAYWGQGTLVTVSA
VL: MTQTPLSLSVSLGDQASISCRSSQSIVHFNGNTYLEWYLQKPGQSPKLLIYKVSSRFSGVPDRFSGSGSGTDFTLKISRVEAEDLGVYYCFQGSHVPPTFGGGTKLEIK
notes: Mouse monoclonal antibody from a hybridoma (mouse spleen cells fused with mouse myeloma cells); also called モノクローナル抗体(クローン YSP5−45−36); clone YSP5-45-36
- binding result: binds
